Results as given in US20140087995A1 (published 2014).
Numbered stars: 1 amine (or outer) side, 2 acyl side, 3 side chain; on linkers, the order of the positions; unused ones are H or OH. Bridge positions count the residues as written; N and C are the ends. Side chains are listed from the residue outwards. Ends that are not written are not given here. * marks the point of attachment. C20 diacid = O=C(O)CCCCCCCCCCCCCCCCCCC(=O)*; γGlu = O=C(O)[C@H](CCC(=O)[*:2])N[*:1]

B1: N^α1-[(4S)-4-carboxy-4-(19-carboxynonadecanoylamino)butanoyl]-[Arg17,Pro21,Pro27,Pro34,Glu35]-h-amylin (peptide)
peptide: {C20 diacid-γGlu}-KCNTATCATQRLANFLRHSSPNFGAIPSSTNVGPETY-NH2
modifications: disulfide 2-7
SMILES: CC[C@H](C)[C@H](NC(=O)[C@H](C)NC(=O)CNC(=O)[C@H](Cc1ccccc1)NC(=O)[C@H](CC(N)=O)NC(=O)[C@@H]1CCCN1C(=O)[C@H](CO)NC(=O)[C@H](CO)NC(=O)[C@H](Cc1c[nH]cn1)NC(=O)[C@H](CCCNC(=N)N)NC(=O)[C@H](CC(C)C)NC(=O)[C@H](Cc1ccccc1)NC(=O)[C@H](CC(N)=O)NC(=O)[C@H](C)NC(=O)[C@H](CC(C)C)NC(=O)[C@H](CCCNC(=N)N)NC(=O)[C@H](CCC(N)=O)NC(=O)[C@@H](NC(=O)[C@H](C)NC(=O)[C@@H]1CSSC[C@H](NC(=O)[C@H](CCCCN)NC(=O)CC[C@H](NC(=O)CCCCCCCCCCCCCCCCCCC(=O)O)C(=O)O)C(=O)N[C@@H](CC(N)=O)C(=O)N[C@@H]([C@@H](C)O)C(=O)N[C@@H](C)C(=O)N[C@@H]([C@@H](C)O)C(=O)N1)[C@@H](C)O)C(=O)N1CCC[C@H]1C(=O)N[C@@H](CO)C(=O)N[C@@H](CO)C(=O)N[C@H](C(=O)N[C@@H](CC(N)=O)C(=O)N[C@H](C(=O)NCC(=O)N1CCC[C@H]1C(=O)N[C@@H](CCC(=O)O)C(=O)N[C@H](C(=O)N[C@@H](Cc1ccc(O)cc1)C(N)=O)[C@@H](C)O)C(C)C)[C@@H](C)O
notes: also called compound 29
B2: N^ε1-[(4S)-4-carboxy-4-[[(4S)-4-carboxy-4-(19-carboxynonadecanoylamino)butanoyl]amino]butanoyl]-[Asp14,Arg17,Pro21,Pro27,Asp35]-h-amylin (peptide)
peptide: K([γGlu-γGlu-C20 diacid])CNTATCATQRLADFLRHSSPNFGAIPSSTNVGSDTY-NH2
modifications: disulfide 2-7; N-terminus assumed
SMILES: CC[C@H](C)[C@H](NC(=O)[C@H](C)NC(=O)CNC(=O)[C@H](Cc1ccccc1)NC(=O)[C@H](CC(N)=O)NC(=O)[C@@H]1CCCN1C(=O)[C@H](CO)NC(=O)[C@H](CO)NC(=O)[C@H](Cc1c[nH]cn1)NC(=O)[C@H](CCCNC(=N)N)NC(=O)[C@H](CC(C)C)NC(=O)[C@H](Cc1ccccc1)NC(=O)[C@H](CC(=O)O)NC(=O)[C@H](C)NC(=O)[C@H](CC(C)C)NC(=O)[C@H](CCCNC(=N)N)NC(=O)[C@H](CCC(N)=O)NC(=O)[C@@H](NC(=O)[C@H](C)NC(=O)[C@@H]1CSSC[C@H](NC(=O)[C@@H](N)CCCCNC(=O)CC[C@H](NC(=O)CC[C@H](NC(=O)CCCCCCCCCCCCCCCCCCC(=O)O)C(=O)O)C(=O)O)C(=O)N[C@@H](CC(N)=O)C(=O)N[C@@H]([C@@H](C)O)C(=O)N[C@@H](C)C(=O)N[C@@H]([C@@H](C)O)C(=O)N1)[C@@H](C)O)C(=O)N1CCC[C@H]1C(=O)N[C@@H](CO)C(=O)N[C@@H](CO)C(=O)N[C@H](C(=O)N[C@@H](CC(N)=O)C(=O)N[C@H](C(=O)NCC(=O)N[C@@H](CO)C(=O)N[C@@H](CC(=O)O)C(=O)N[C@H](C(=O)N[C@@H](Cc1ccc(O)cc1)C(N)=O)[C@@H](C)O)C(C)C)[C@@H](C)O
notes: also called compound 2
B3: N^α1-[(4S)-4-carboxy-4-(19-carboxynonadecanoylamino)butanoyl]-[Glu14,Arg17,Pro21,Pro27,Pro34]-h-amylin (peptide)
peptide: {C20 diacid-γGlu}-KCNTATCATQRLAEFLRHSSPNFGAIPSSTNVGPNTY-NH2
modifications: disulfide 2-7
SMILES: CC[C@H](C)[C@H](NC(=O)[C@H](C)NC(=O)CNC(=O)[C@H](Cc1ccccc1)NC(=O)[C@H](CC(N)=O)NC(=O)[C@@H]1CCCN1C(=O)[C@H](CO)NC(=O)[C@H](CO)NC(=O)[C@H](Cc1c[nH]cn1)NC(=O)[C@H](CCCNC(=N)N)NC(=O)[C@H](CC(C)C)NC(=O)[C@H](Cc1ccccc1)NC(=O)[C@H](CCC(=O)O)NC(=O)[C@H](C)NC(=O)[C@H](CC(C)C)NC(=O)[C@H](CCCNC(=N)N)NC(=O)[C@H](CCC(N)=O)NC(=O)[C@@H](NC(=O)[C@H](C)NC(=O)[C@@H]1CSSC[C@H](NC(=O)[C@H](CCCCN)NC(=O)CC[C@H](NC(=O)CCCCCCCCCCCCCCCCCCC(=O)O)C(=O)O)C(=O)N[C@@H](CC(N)=O)C(=O)N[C@@H]([C@@H](C)O)C(=O)N[C@@H](C)C(=O)N[C@@H]([C@@H](C)O)C(=O)N1)[C@@H](C)O)C(=O)N1CCC[C@H]1C(=O)N[C@@H](CO)C(=O)N[C@@H](CO)C(=O)N[C@H](C(=O)N[C@@H](CC(N)=O)C(=O)N[C@H](C(=O)NCC(=O)N1CCC[C@H]1C(=O)N[C@@H](CC(N)=O)C(=O)N[C@H](C(=O)N[C@@H](Cc1ccc(O)cc1)C(N)=O)[C@@H](C)O)C(C)C)[C@@H](C)O
notes: also called compound 32
B4: N^α1-[(4S)-4-carboxy-4-(19-carboxynonadecanoylamino)butanoyl]-[Glu14,Arg17,Pro21,Pro27,His34]-h-amylin (peptide)
peptide: {C20 diacid-γGlu}-KCNTATCATQRLAEFLRHSSPNFGAIPSSTNVGHNTY-NH2
modifications: disulfide 2-7
SMILES: CC[C@H](C)[C@H](NC(=O)[C@H](C)NC(=O)CNC(=O)[C@H](Cc1ccccc1)NC(=O)[C@H](CC(N)=O)NC(=O)[C@@H]1CCCN1C(=O)[C@H](CO)NC(=O)[C@H](CO)NC(=O)[C@H](Cc1c[nH]cn1)NC(=O)[C@H](CCCNC(=N)N)NC(=O)[C@H](CC(C)C)NC(=O)[C@H](Cc1ccccc1)NC(=O)[C@H](CCC(=O)O)NC(=O)[C@H](C)NC(=O)[C@H](CC(C)C)NC(=O)[C@H](CCCNC(=N)N)NC(=O)[C@H](CCC(N)=O)NC(=O)[C@@H](NC(=O)[C@H](C)NC(=O)[C@@H]1CSSC[C@H](NC(=O)[C@H](CCCCN)NC(=O)CC[C@H](NC(=O)CCCCCCCCCCCCCCCCCCC(=O)O)C(=O)O)C(=O)N[C@@H](CC(N)=O)C(=O)N[C@@H]([C@@H](C)O)C(=O)N[C@@H](C)C(=O)N[C@@H]([C@@H](C)O)C(=O)N1)[C@@H](C)O)C(=O)N1CCC[C@H]1C(=O)N[C@@H](CO)C(=O)N[C@@H](CO)C(=O)N[C@H](C(=O)N[C@@H](CC(N)=O)C(=O)N[C@H](C(=O)NCC(=O)N[C@@H](Cc1c[nH]cn1)C(=O)N[C@@H](CC(N)=O)C(=O)N[C@H](C(=O)N[C@@H](Cc1ccc(O)cc1)C(N)=O)[C@@H](C)O)C(C)C)[C@@H](C)O
notes: also called compound 17

molecular target: T1, human amylin receptor (amylin 3(a) receptor: human calcitonin receptor plus RAMP-3) (human, UniProt P30988 25-474; O60896 24-148); assay: SPA competition binding, membranes with human amylin 3(a) receptor, displacement of 125I-rat amylin (Assay V)
T1 construct: whole, on cells; the species of RAMP-3 is told only through the name 'human amylin receptor'; also called hAmylin-R; hAmylinR
T1 sequence (looked up) 1: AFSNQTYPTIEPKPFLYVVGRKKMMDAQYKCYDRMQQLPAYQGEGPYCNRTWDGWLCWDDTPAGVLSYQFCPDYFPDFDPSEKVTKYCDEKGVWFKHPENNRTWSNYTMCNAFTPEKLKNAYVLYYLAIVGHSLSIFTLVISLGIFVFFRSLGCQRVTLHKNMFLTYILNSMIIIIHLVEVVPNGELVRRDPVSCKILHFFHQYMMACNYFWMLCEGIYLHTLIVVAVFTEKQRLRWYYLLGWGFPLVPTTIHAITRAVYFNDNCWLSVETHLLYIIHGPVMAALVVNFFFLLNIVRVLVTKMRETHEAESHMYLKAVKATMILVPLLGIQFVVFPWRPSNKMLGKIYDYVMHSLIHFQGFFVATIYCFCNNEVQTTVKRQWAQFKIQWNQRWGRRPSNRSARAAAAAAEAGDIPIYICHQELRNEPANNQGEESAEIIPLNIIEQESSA
T1 sequence (looked up) 2: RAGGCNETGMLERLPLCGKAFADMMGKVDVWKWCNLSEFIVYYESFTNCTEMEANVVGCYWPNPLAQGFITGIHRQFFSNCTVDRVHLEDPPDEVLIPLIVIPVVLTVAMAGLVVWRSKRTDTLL
Procedure: The binding assay was performed using scintillation proximity assay (SPA) beads (RPNQ0001) from PerkinElmer and cell membranes from the Amylin 3(a)/CRE-luc cells (as described in Assay (II)) were used. Membranes were prepared in the following way; the cells were rinsed with PBS and incubated with Versene for approximately 5 min before harvesting. The cells were flushed with PBS and the cell-suspension was centrifuged for 5 min at 1000 rpm. Cells were homogenized (ultrathurrax) in a buffer containing 20 mM Na-HEPES and 10 mM EDTA (pH 7.4) and centrifuged at 20.000 rpm for 15 min. The resulting pellet was resuspended, homogenized and centrifuged (20.000 rpm, 15 min) in a buffer containing 20 mM Na-HEPES and 0.1 mM EDTA (pH 7.4, buffer 2). The resulting pellet was resuspended in buffer 2 and protein concentration was measured (BCA protein Assay, Pierce). The homogenate was kept cold during the whole procedure. The membranes were kept at −80° C. until use. The assay was performed in a 384 well Optiplate (PerkinElmer) in a total volume of 40 ul. Membranes were mixed with SPA beads. Final concentration of membranes 35 ng/μL final and SPA beads was 0.05 mg/well. Test-compounds were dissolved in DMSO and further diluted in assay buffer (50 mM Hepes, pH 7.4, 1 mM CaCl2, 5 mM MgCl₂, 0.1% OA and 0.02% Tween20). […] The final mixture was incubated with shaking at 400 rpm for 120 min at 25° C. prior to centrifugation (1500 rpm, 10 min). Samples were analyzed on TopCounter™ (Packard). The IC₅₀ was calculated using (one site binding competition analysis) GraphPad Prism5 as a measure of receptor affinity.

In order of falling IC50:
1. B4  0.878 nM
2. B1  0.577 nM
3. B2  0.411 nM
4. B3  0.1 nM

molecular target: T2, human calcitonin receptor (human, UniProt P30988 25-474); assay: SPA competition binding, membranes with human calcitonin receptor, displacement of 125I-calcitonin (Assay VII)
T2 construct: whole, on cells; also called hCTR; hCT
T2 sequence (looked up): T1 sequence (looked up) 1
Method in brief: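 BHK hCTR membranes 35 ng/μL + SPA beads 0.05 mg/well; buffer 50 mM Hepes pH 7.4, 1 mM CaCl2, 5 mM MgCl₂, 0.1% OA, 0.02% Tween20. 120 min, 25° C., shaking. Scintillation count; IC50 by one-site binding competition.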

In order of falling IC50:
1. B2  19.5 nM
2. B4  10.9 nM
3. B1  8.01 nM
4. B3  1.09 nM

molecular target: T2, human calcitonin receptor; assay: ratio of IC50 at hCTR to IC50 at the human amylin receptor (reference)
Method in brief: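 Scintillation proximity competition binding on cell membranes at 35 ng/μL with SPA beads, in 50 mM Hepes pH 7.4, 1 mM CaCl2, 5 mM MgCl₂, 0.1% OA, 0.02% Tween20. Incubated 120 min at 25° C with shaking. IC₅₀ from one-site competition fit.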

In order of falling “Ratio hCT/hAmylin binding” value:
1. B2  47.5
2. B1  13.9
3. B4  12.5
4. B3  10.9
